Columns and labels:
HuCXCL2 = biological target: T1, HuCXCL2 (Homo sapiens, UniProt P19875); experiment: ELISA, inhibition of binding of HuCXCL2 to GAG (heparin, heparan sulfate); type: biochemical; settings: antibody 0 to 10 μg/mL; biotin-labeled heparin or heparan sulfate 10 μg/mL
T1 construct: purchased PROTEINTECH
T1 sequence (P19875 35-107): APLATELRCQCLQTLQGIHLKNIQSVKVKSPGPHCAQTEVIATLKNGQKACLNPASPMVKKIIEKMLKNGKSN
Protocol: Thus, the effect of Hu5A-5E11 on the binding of CXCLs to GAG was evaluated by ELISA assay using plates on which the antigen (HuCXCL1 protein) used for immunization or HuCXCL2, 3 and 5 and MsCXCL1 and 2 proteins had been directly immobilized. CXCLs other than HuCXCL1 were purchased from PROTEINTECH and used. Biotin-labeled heparan sulfate and heparin were purchased from PG Research and used.
To 96-well plates, phosphate-buffered saline (PBS) containing 3 μg/mL of HuCXCL1, 2, 3 or 5 or MsCXCL1 or 10 μg/mL of MsCXCL2 was added in a volume of 50 μL per well, and the plates were allowed to stand overnight at 4° C. After removal of the antigen solutions, PBS containing 0.05% Tween-20 (hereinafter referred to as the blocking solution) was added to each well for blocking reaction, and the plates were allowed to stand at room temperature for 30 minutes. […] TMB (Dako) was added as a chromogenic substrate solution to cause color development, and 1 N sulfuric acid was added to stop the reaction, followed by measurement of absorbance at 450 nm. The binding rate of CXCLs to GAG was calculated as a ratio relative to the absorbance measured in the absence of the antibody, which was set to 100%.

CXCR2-expressing cells = experiment: In vivo CXCR2-expressing cell migration inhibitory activity, treatment model with OCUM-12 orthotopic transplantation; set-up: species or system mouse
Excerpt: The stomachs after measurement were excised and fixed overnight at room temperature with a 10% neutral buffered formalin solution (Wako Pure Chemical Industries, Ltd., Japan), followed by replacement with PBS. Then, paraffin embedding and section preparation were outsourced to Applied Medical Research Laboratory, Japan. The prepared gastric tumor sections were immunohistologically stained with an anti-CXCR2 antibody to evaluate in vivo CXCR2 cell migration inhibitory activity. The sections were deparaffinized and rehydrated, and then treated to inactivate endogenous peroxidase. After antigen activation treatment, the sections were blocked with PBS containing 2% skimmed milk and 0.1% Tween-20 (hereinafter referred to as the blocking solution), and reacted overnight at 4° C. with an anti-CXCR2 antibody (Biorbyt) as a primary antibody, which had been diluted 1667-fold with the blocking solution. After washing with PBS containing 0.1% Tween-20, the sections were reacted at room temperature for 1 hour with an HRP-labeled goat anti-rabbit IgG antibody (Abcam) as a secondary antibody. […]
The dose-response relationship between antibody dose and in vivo antitumor activity or CXCR2 migration inhibitory activity was evaluated in a xenograft treatment model with OCUM-12 orthotopic transplantation. […] After 4 weeks had passed from the transplantation, the mice were sacrificed and evaluated.

B1: Hu5A-5E11: humanized antibody VH1/VL1; VH SEQ ID NO: 76, VL SEQ ID NO: 78 (antibody, V domains shown)
VH: QVQLVQSGAEVKKPGSSVKVSCKASGYAFSDYWMNWVRQAPGQGLEWIGQIYPGSGDTNYNAKFKGKGTITADKSTSTAYMELSSLRSEDTAVYYCARERDYDVAMDYWGQGTTVTVSS
VL: DIQMTQSPSSLSASVGDRVTITCKASQDINKYIAWFQQKPGKAPKLVIHYTSILQPGVPSRFSGSGSGTDYTFTISSLQPEDIATYYCLQYDNLPWTFGGGTKVEIK
Inhibitory activity against the binding of HuCXCL2 to GAG (HuCXCL2): inhibit the binding of HuCXCL1, 2, 3 and 5 and MsCXCL1 to GAG in an antibody concentration-dependent manner | Dose at which the migration suppressive effect tended to reach a plateau (CXCR2-expressing cells): ≥ 60 μg/head
